Our source for the stoichiometry N values is paper PMC2646141.

The target of the assay is untagged wild type APOBEC3G (A3G) (human), Q9HC16. The experiment in a line: cross-linking; cleared lysate of transfected 293T cells treated with BM(PEO)3 (cysteine-reactive, 18 Å linker), 20°C, 1 h, quenched with DTT; SDS-PAGE and immunoblot for A3G; ~80 kD species; no RNase A, or RNase A after the crosslinking. The settings on record: remark: other sources report otherwise. In general terms: A western blot detects proteins with antibodies after separation by electrophoresis.

B1: untagged wild type APOBEC3G (A3G), Q9HC16 1-384 (natural protein)
chain: MKPHFRNTVERMYRDTFSYNFYNRPILSRRNTVWLCYEVKTKGPSRPPLDAKIFRGQVYSELKYHPEMRFFHWFSKWRKLHRDQEYEVTWYISWSPCTKCTRDMATFLAEDPKVTLTIFVARLYYFWDPDYQEALRSLCQKRDGPRATMKIMNYDEFQHCWSKFVYSQRELFEPWNNLPKYYILLHIMLGEILRHSMDPPTFTFNFNNEPWVRGRHETYLCYEVERMHNDTWVLLNQRRGFLCNQAPHKHGFLEGRHAELCFLDVIPFWKLDLDQDYRVTCFTSWSPCFSCAQEMAKFISKNKHVSLCIFTARIYDDQGRCQEGLRTLAEAGAKISIMTYSEFKHCWDTFVDHQGCPFQPWDGLDEHSQDLSGRLRAILQNQEN
Broadly, the stoichiometry N is the number of molecules, sites or subunits per partner or assembly. With B1, the stoichiometry N came out at 2.
